# Experimental data from article doi:10.1101/2021.10.11.463969.
# Molecular target: Measles virus matrix protein (MeV-M) fused to a twin StrepII tag (Measles virus) (UniProt Q9W850)
# Experiment: SEC-MALS
substance,measurement,value
Measles virus matrix protein (MeV-M) fused to a twin StrepII tag (from UniProt Q9W850 1-335) (natural protein),stoichiometry N,2
